Experimental data published in PMC10755771.

Molecular target: STAM1-His (signal-transducing adaptor molecule 1, wild type) (UniProt Q92783)

βarrestin1 (untagged, wild type) (from UniProt P49407 1-418) (natural protein)
in vitro ubiquitination of STAM1 by AIP4 with βarr1 at 0-320 nM, 90 min at 37 °C; EC50 for βarr1 from the STAM1 immunoblots: 48.7 nM
in vitro ubiquitination of STAM1 by AIP4 with βarr1 at 0-320 nM, 90 min at 37 °C; EC50 for βarr1 from the ubiquitin immunoblots: 49.8 nM
